In paper PMC10478762:

Biological target: NADPH-dependent imine reductase from Ajellomyces dermatitidis (Ajellomyces dermatitidis)
Assay: crystal structure; three crystal forms, sitting drop, 298 K, protein at 40 mg/ml in 50 mM Tris-HCl pH 7.5, 300 mM NaCl; data set 1 P3(1)21 with NADPH4 (one dimer in the asymmetric unit), data set 2 C2(1) with NADP+ (nine molecules, four and a half dimers), data set 3 P3(1)21 with NADP+ and 2,2-difluoroacetophenone (half-dimer, partner by crystal symmetry)

NADPH-dependent imine reductase from Ajellomyces dermatitidis (enzyme)
stoichiometry N: 2
